Measured values as given in FireProtDB (doi:10.1002/pro.2375).

B1: Amylosucrase, Q9ZEU2 (parent)
chain: MLTPTQQVGLILQYLKTRILDIYTPEQRAGIEKSEDWRQFSRRMDTHFPKLMNELDSVYGNNEALLPMLEMLLAQAWQSYSQRNSSLKDIDIARENNPDWILSNKQVGGVCYVDLFAGDLKGLKDKIPYFQELGLTYLHLMPLFKCPEGKSDGGYAVSSYRDVNPALGTIGDLREVIAALHEAGISAVVDFIFNHTSNEHEWAQRCAAGDPLFDNFYYIFPDRRMPDQYDRTLREIFPDQHPGGFSQLEDGRWVWTTFNSFQWDLNYSNPWVFRAMAGEMLFLANLGVDILRMDAVAFIWKQMGTSCENLPQAHALIRAFNAVMRIAAPAVFFKSEAIVHPDQVVQYIGQDECQIGYNPLQMALLWNTLATREVNLLHQALTYRHNLPEHTAWVNYVRSHDDIGWTFADEDAAYLGISGYDHRQFLNRFFVNRFDGSFARGVPFQYNPSTGDCRVSGTAAALVGLAQDDPHAVDRIKLLYSIALSTGGLPLIYLGDEVGTLNDDDWSQDSNKSDDSRWAHRPRYNEALYAQRNDPSTAAGQIYQGLRHMIAVRQSNPRFDGGRLVTFNTNNKHIIGYIRNNALLAFGNFSEYPQTVTAHTLQAMPFKAHDLIGGKTVSLNQDLTLQPYQVMWLEIA

Variants of: B1
Details: Neisseria polysaccharea; pH 7; Thermal; DSF; Tris 50 mM; structure 1G5A; whole UniProt chain shown

Point of comparison: F258Y, “change of melting temperature, mutant - wild type (higher = more stable)” value -0.8 °C. Against it:
- Y155F — higher, -0.2 °C
- H195G — lower, -2.8 °C
- H400N — higher, -0.2 °C
- H400K — lower, -1.6 °C
- R454A — higher, -0.2 °C
- Y155A — lower, -1 °C
- H195W — lower, -5.8 °C
- H195R — lower, -5 °C
- H195M — higher, -0.2 °C
- H400P — higher, 2.2 °C
- H195V — lower, -4 °C
- R292V — higher, 1.8 °C
- D152A — higher, 0.2 °C
- H400Y — higher, 2 °C
- H195D — lower, -3.4 °C
- R454F — higher, 0.2 °C
- F258N — lower, -3.2 °C
- R292H — higher, 0.4 °C
- H195L — lower, -6.4 °C
- H195C — higher, -0.2 °C
- Y155N — lower, -1 °C
- D152I — lower, -1.6 °C
- H400W — higher, 0.4 °C
- H195I — lower, -6.6 °C
- R517A — higher, 0 °C
- R292K — higher, 1.6 °C
- H195Y — lower, -3.2 °C
- D515I — higher, 0.6 °C
- H400C — higher, 0.8 °C
- H400I — higher, -0.2 °C
- H195T — lower, -4 °C
- H400F — lower, -2.4 °C
- D515A — higher, 0.8 °C
- H195Q — lower, -3 °C
- H400T — higher, 0.4 °C
- H400S — higher, 0.2 °C
- H195N — lower, -1.4 °C
- H400E — higher, 0.4 °C
- H400M — higher, 0.4 °C
- H400L — higher, -0.4 °C
- H195A — lower, -1.6 °C
- H400G — higher, 0.8 °C
- H400V — higher, 0.2 °C
- R454E — lower, -2.2 °C
- H400Q — higher, -0.4 °C
- H195K — higher, -0.4 °C
- D152E — lower, -1.4 °C
